Measurements as given in patent US20220153864A1 (Pieris, published 2022).

Columns and labels:
[1] = biological target: recombinant cynomolgus GPC3 (cyGPC3) (R&D Systems) (cynomolgus, UniProt A0A2K5VK50 24-558); assay: SPR (Biacore T200), binder captured by anti-human IgG Fc, cyGPC3 as analyte, 1:1 model
Protocol: The anti-human IgG Fc antibody (GE Healthcare) was immobilized on a CM5 sensor chip using standard amine chemistry: the carboxyl groups on the chip were activated using 1-ethyl-3-(3-dimethylaminopropyl)-carbodiimide (EDC) and N-hydroxysuccinimide (NHS). Subsequently, anti-human IgG Fc antibody solution (GE Healthcare) at a concentration of 25 μg/mL in 10 mM sodium acetate (pH 5.0) was applied at a flow rate of 5 μL/min until an immobilization level of 6000-10000 resonance units (RU) was achieved. Residual non-reacted NHS-esters were blocked by passing a solution of 1M ethanolamine across the surface. The reference channel was treated in an analogous manner. Subsequently, testing fusion proteins (SEQ ID NOs: 87 and 82 and CD137Ac1-Fusion 1) or the GPC3 antibody as included in the fusion protein (SEQ ID NOs: 81 and 82) at 0.2 μg/ml in HBS-EP+ buffer was captured by the anti-human IgG-Fc antibody at the chip surface for 180 s at a flow rate of 10 μL/min. After each capture step, the needle was washed.
The binding assay was carried out with a contact time of 180 s, a dissociation time of 900 s, and a flow rate of 30 μL/min. After each injection, the needle was cleaned with 40 mM NaOH+20% isopropanol. All measurements were performed at 25° C. […] Prior to the protein measurements, three startup cycles were performed for conditioning purposes. Data were evaluated with Biacore T200 Evaluation software (v2.0). Double referencing was used and the 1:1 binding model was used to fit the raw data.

[2] = biological target: T1, human CD137 expressed on cells (Flp-In-CHO::huCD137; NFkB-luc2/CD137 Jurkat cells) (human, UniProt Q07011 24-255); assay: flow cytometry, CHO cells transfected with human CD137, detection labelled anti-human IgG, GeoMean BL1-H [lower graph]
T1 construct: whole, on cells; also called human CD137-expressing cells
T1 sequence (Q07011 24-255): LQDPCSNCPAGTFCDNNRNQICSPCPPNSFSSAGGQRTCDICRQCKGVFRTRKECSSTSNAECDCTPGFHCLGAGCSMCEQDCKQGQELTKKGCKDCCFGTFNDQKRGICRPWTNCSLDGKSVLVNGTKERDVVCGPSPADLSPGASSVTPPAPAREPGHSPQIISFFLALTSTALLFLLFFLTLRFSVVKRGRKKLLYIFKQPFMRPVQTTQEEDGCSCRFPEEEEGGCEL
Protocol: For flow cytometric analysis, respective cell lines were incubated with an exemplary fusion protein (SEQ ID NOs: 87 and 82), the GPC3 antibody or the CD137 specific lipocalin mutein (Fc fusion) as included in the fusion protein (SEQ ID NOs: 81 and 82 and SEQ ID NO: 98, respectively), a reference CD137 antibody SEQ ID NOs: 26 and 27, or an isotype control (SEQ ID NOs: 24 and 25) and detected using a fluorescently labeled anti-human IgG antibody in FACS analysis as described in the following:
(§1) 5×10⁴ cells per well were incubated for 1 h in ice-cold PBS containing 5% fetal calf serum (PBS-FCS). A dilution series of the testing molecule were added to the cells and incubated for 1 h on ice. Cells were washed twice with PBS and then incubated with a goat anti-hlgG Alexa647-labeled antibody or goat anti-hlgG Alexa488-labeled antibody for 30 min on ice. Cells were subsequently washed and analyzed using iQue Flow cytometer (Intellicyte Screener). Mean geometric fluorescent signals were plotted and fitted with Graphpad software. The geometric means of the fluorescence intensity were used to calculate EC₅₀ values using a four-parameter logistic regression with bottom fixed to background.

[3] = biological target: T2, human GPC3 expressed on cells (SK-Hep1::huGPC3; HepG2, Hep3B and MKN-45 tumor cells) (human, UniProt P51654 25-554); assay: flow cytometry on HepG2 tumor cells (GPC3 high)
T2 construct: whole, on cells; also called GPC3-positive tumor cells; human GPC3-expressing cells
T2 sequence (P51654 25-554 limits assumed): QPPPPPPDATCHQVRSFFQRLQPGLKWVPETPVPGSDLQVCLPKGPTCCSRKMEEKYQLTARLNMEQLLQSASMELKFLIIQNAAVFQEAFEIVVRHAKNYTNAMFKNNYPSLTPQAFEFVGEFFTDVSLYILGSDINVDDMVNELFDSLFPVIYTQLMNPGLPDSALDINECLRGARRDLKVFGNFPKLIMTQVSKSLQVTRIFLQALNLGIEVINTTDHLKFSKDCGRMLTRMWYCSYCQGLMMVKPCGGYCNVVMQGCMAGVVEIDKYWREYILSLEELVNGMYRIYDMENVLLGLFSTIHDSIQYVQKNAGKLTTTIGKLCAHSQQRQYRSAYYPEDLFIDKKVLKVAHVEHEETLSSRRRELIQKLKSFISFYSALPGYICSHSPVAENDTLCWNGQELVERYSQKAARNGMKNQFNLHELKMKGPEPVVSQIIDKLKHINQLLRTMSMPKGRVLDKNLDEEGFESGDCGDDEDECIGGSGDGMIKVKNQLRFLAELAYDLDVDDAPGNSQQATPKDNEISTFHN
Protocol: as §1
For flow cytometric analysis, tumor cell lines with different GPC3 expression levels (high to moderate expression: HepG2>Hep3B>MKN-45) and GPC3 negative cell line NCI-N87 were incubated with an exemplary fusion protein SEQ ID NOs: 87 and 82, the GPC3 antibody or the CD137 specific lipocalin mutein (Fc fusion) as included in the fusion protein (SEQ ID NOs: 81 and 82 and SEQ ID NO: 98, respectively), a reference CD137 antibody SEQ ID NOs: 26 and 27, or an isotype control (SEQ ID NO: 24 and 25), and detected using a fluorescently labeled anti-human IgG antibody as described in Example 6.

[4] = biological target: T3, recombinant human GPC3 (huGPC3) (R&D Systems) (human, UniProt P51654 25-559); assay: ELISA, huGPC3 coated, detection anti-human IgG Fc-HRP
T3 construct: also called biotinylated huGPC3
T3 sequence (P51654 25-559 limits assumed): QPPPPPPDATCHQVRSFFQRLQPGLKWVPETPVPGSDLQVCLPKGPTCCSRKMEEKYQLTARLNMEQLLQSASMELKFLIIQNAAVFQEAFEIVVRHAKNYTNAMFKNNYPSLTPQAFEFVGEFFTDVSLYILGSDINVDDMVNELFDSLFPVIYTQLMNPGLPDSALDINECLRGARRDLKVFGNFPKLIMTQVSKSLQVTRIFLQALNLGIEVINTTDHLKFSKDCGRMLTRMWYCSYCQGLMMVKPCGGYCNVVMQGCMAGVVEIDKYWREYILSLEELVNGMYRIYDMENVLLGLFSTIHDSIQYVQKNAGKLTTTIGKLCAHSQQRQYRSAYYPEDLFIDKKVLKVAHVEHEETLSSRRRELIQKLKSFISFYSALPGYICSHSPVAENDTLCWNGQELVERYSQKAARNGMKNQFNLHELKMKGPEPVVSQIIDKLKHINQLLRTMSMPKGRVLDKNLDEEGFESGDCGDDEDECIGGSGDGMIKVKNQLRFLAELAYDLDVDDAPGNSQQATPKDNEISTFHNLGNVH
Protocol: Recombinant huGPC3 (R&D Systems) at the concentration of 1 μg/mL in PBS was coated overnight on microtiter plates at 4° C. After five washes with 100 μL PBS-0.05% T (PBS supplemented with 0.05% (v/v) Tween 20), the plates were blocked with 2% BSA (w/v) in PBS-0.1% T (PBS-0.1% T-2% BSA) for 1 h at room temperature. After washing with 100 μL PBS-0.05% T (PBS supplemented with 0.05% (v/v) Tween 20) five times, exemplary fusion proteins (SEQ ID NOs: 87 and […] and CD137Ac1-Fusion 1 to 7) or the GPC3 antibody as include in the fusion proteins (SEQ ID NOs: 81 and 82) at different concentrations were added to the wells and incubated for 1 h at room temperature, followed by another wash step. Bound molecules under study were detected by incubation with 1:5000 diluted anti-human IgG Fc-HRP (Jackson Laboratory) in PBS-0.1% T-2% BSA. After an additional wash step, fluorogenic HRP substrate (QuantaBlu, Thermo) was added to each well and the fluorescence intensity was detected using a fluorescence microplate reader.
Exemplary results are depicted in FIG. 2A-2D, together with the fit curves resulting from a 1:1 binding sigmoidal fit, where the EC₅₀ value and the maximum signal were free parameters, and the slope was fixed to unity.

[5] = biological target: T1, human CD137 expressed on cells …; assay: cell-based or functional assay

Kd [1]: 936 pM
koff [1]: 0.000275 s⁻¹
kon [1]: 293000 M⁻¹ s⁻¹
EC50 (read off the curve) [2]: ~20000 pM
EC50 [3]: 20600 pM
EC50 [4]: 190 pM
EC50, CD137 Bioassay (NFkB-luc2/CD137 Jurkat cells co-cultured with Hep3B) [5]: 780 pM
EC50, CD137 Bioassay (NFkB-luc2/CD137 Jurkat cells co-cultured with HepG2) [5]: 380 pM
B1: fusion protein SEQ ID NOs: 87 and 82 (bispecific antibody, human IgG4 S228P, kappa, F234A L235A)
heavy: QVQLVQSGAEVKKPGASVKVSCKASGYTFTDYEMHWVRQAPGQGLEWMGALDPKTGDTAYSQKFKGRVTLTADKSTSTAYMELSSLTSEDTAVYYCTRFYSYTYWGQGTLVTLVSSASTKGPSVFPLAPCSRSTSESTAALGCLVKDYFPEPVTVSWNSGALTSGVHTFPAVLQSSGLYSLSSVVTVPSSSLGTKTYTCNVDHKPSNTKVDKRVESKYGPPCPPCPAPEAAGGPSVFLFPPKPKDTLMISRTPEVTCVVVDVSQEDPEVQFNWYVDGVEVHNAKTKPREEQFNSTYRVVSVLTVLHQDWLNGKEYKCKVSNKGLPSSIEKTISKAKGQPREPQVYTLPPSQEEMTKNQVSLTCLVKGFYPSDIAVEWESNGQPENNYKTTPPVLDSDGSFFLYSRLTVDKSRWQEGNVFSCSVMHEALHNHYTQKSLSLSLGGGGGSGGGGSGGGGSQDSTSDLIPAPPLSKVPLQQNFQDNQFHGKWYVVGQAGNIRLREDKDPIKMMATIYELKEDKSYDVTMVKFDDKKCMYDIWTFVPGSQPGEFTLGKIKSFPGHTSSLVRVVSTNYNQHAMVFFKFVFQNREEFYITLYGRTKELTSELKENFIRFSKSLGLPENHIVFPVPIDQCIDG
light: DVVMTQSPLSLPVTPGEPASISCRSSQSLVHSNRNTYLHWYLQKPGQSPQLLIYKVSNRFSGVPDRFSGSGSGTDFTLKISRVEAEDVGVYYCSQNTHVPPTFGQGTKLEIKRTVAAPSVFIFPPSDEQLKSGTASVVCLLNNFYPREAKVQWKVDNALQSGNSQESVTEQDSKDSTYSLSSTLTLSKADYEKHKVYACEVTHQGLSSPVTKSFNRGEC
notes: also called exemplary fusion protein
